Measured values: patent US20050187147A1 (published 2005)
Square brackets hold non-standard residues; d marks the D form. Primed or numbered codes have the meaning given here. * marks the point of attachment. 10Ca = carbamate linkage conjugating the peptide-PEG to paclitaxel at C10; ALK(6) = not defined here; 10Es = not defined here; Cbz = O=C(OCc1ccccc1)*; PEG(13) = PEG13 linker; Piv = CC(C)(C)C(=O)*; OBn = c1ccc(CO*)cc1; PXL = paclitaxel

Molecular target: Human Src kinase (Upstate #14-326) (human, UniProt P12931 1-536)
Assay: cell-based or functional assay

Average src kinase activity	Binder
0 % of parent peptide activity	Ac-E(OBn)YIYGSFK(Cbz)-{PEG(13)-10Ca-PXL} [Ac-E(Bzl)YIYGSFK(CBz)-PEG(13)-10Ca-PXL]
0 % of parent peptide activity	Cbz-YIYGSFK(Cbz)-{ALK(6)-10Es-PXL} (reading uncertain) [CBz-YIYGSFK(CBz)-ALK(6)-10Es-PXL]
0 % of parent peptide activity	Ac-EYI[dY]GSFK-{PEG(13)-10Ca-PXL} [Ac-EYIyGSFK-PEG(13)-10Ca-PXL]
0 % of parent peptide activity	Piv-YIFGSFR-{PEG(13)-10Ca-PXL} [Pv-YIFGSFR-PEG(13)-10Ca-PXL]
0 % of parent peptide activity	Ac-EYIFGSFK-{PEG(13)-10Ca-PXL} [Ac-EYIFGSFK-PEG(13)-10Ca-PXL]
